# Assays:
# [1] = test system: 4T1 cells; assay: In vivo therapeutic efficacy in 4T1 tumor-bearing mice; settings: for tumor growth (relative tumor volume): 4T1 tumors, single tail vein injection, 21 days, SPION-GOx 5 mg/kg, SPION 5 mg/kg, GOx 8.5 nmol/kg
# Procedure: 4T1 cells (2×10^5 cell/mouse) were implanted subcutaneously into the right shoulders of female balb/c mice (˜20 g). In vivo therapeutic efficacy experiments were performed when the tumor reached 6˜8 mm in average diameter (10 days after implant). 3-5 mice were randomly assigned to 4 groups, to which the following agents were administered via tail vein injection: Group A were administered with a mixture of unconjugated SPION and GOx at the dosage of 5 mg/kg and 8.5 nmol/kg respectively; Group B were administered with GOx at the dosage of 8.5 nmol/kg; Group C were administered with 200 μL saline as control; and Group D were administered with a single dose of 5 mg/mL SPION-GOx in saline at a dosage of 5 mg/kg. All the administration was made at about the same time of the day. The size and size distribution of SPION-GOx bioconjugates were determined using DLS before injection to ensure the conjugation was complete and no precipitation was formed in the suspension. The SPION-GOx PBS solution to be used on animal study was tested using a TMB assay to verify the effective generation of ROS. The weight and health conditions of the mice were monitored daily. The tumor sizes were measured and recorded every other day in the first 12 days, and then every 3 days until 21 days post injection, at which time point the tumors were harvested. The volumes of the tumors were calculated by the following equation: V=L×W^2/2.
# [2] = test system: ROS; assay: TMB-based ROS activity assay; format: biochemical; settings: in the presence of glucose, 37° C., 2 h, pH 4
# Description: Production of ROS by the GOx-SPION bioconjugate was characterized by using a color agent 3,3′,5,5′-tetramethylbenzidine (TMB). TMB is known to be able to produce a blue color in the presence of ROS, which can be quantified by measuring the absorption at the wavelength of 650 nm. As a comparison, the levels of ROS produced by GOx and SPION alone, a mixture of GOx and SPION without conjugation, as well as the mAb-GOx-SPION bioconjugate were characterized.
# The TMB-based ROS activity assay was carried out by using the following process. 20 μL SPION (5.0 mg/mL), GOx (1.0 mg/mL), a mixture of GOx (0.5 mg/mL) and SPION (2.5 mg/mL) without conjugation, GOx-SPION (5.0 mg/mL), and mAb-GOx-SPION (5.0 mg/mL) were each added into 380 μL of reaction buffer (0.1 M NaAc, pH 4, 50 μg TMB), followed by addition of either 100 μL of 100 mM glucose or 100 μL of DiH2O. After the mixtures were incubated at 37° C. for 2 h, the color change was detected with a Hitachi UV-Vis spectrophotometer.
# [3] = test system: 4T1 breast cancer xenografts; assay: Biodistribution in mice with 4T1 breast cancer xenografts; format: in vivo; settings: 150 μg, mice with 4T1 xenografts, 1 day after injection
# Procedure: To visualize the biodistribution of GOx-SPION within mouse models, GOx-SPION was tagged with a fluorescent dye (Cy7 moiety). 150 μg of the resulting SPION-GOx-Cy7 bioconjugate was administered to 5 mice having 4T1 breast cancer xenografts. The biodistribution of the bioconjugates was imaged at 1 day, 3 days, 4 days, 5 days, 6 days, and 7 days after injection (see FIGS. 12A-12B).
Molecule,tumor growth (relative tumor volume) [1],"production of ROS (peak height at 650 nm, TMB) [2]",biodistribution (uptake) [3],"side effects (weight loss or death) ([1]; 4T1 tumor mice, 5 mg/kg tail vein)","body weight loss during treatment ([1]; mouse, in vivo, 5 mg/kg)"
"glucose oxidase (protein, UniProt P13006 17-605, looked up) Glucose oxidase: LPHYIRSNGIEASLLTDPKDVSGRTVDYIIAGGGLTGLTTAARLTENPNISVLVIESGSYESDRGPIIEDLNAYGDIFGSSVDHAYETVELATNNQTALIRSGNGLGGSTLVNGGTWTRPHKAQVDSWETVFGNEGWNWDNVAAYSLQAERARAPNAKQIAAGHYFNASCHGVNGTVHAGPRDTGDDYSPIVKALMSAVEDRGVPTKKDFGCGDPHGVSMFPNTLHEDQVRSDAAREWLLPNYQRPNLQVLTGQYVGKVLLSQNGTTPRAVGVEFGTHKGNTHNVYAKHEVLLAAGSAVSPTILEYSGIGMKSILEPLGIDTVVDLPVGLNLQDQTTATVRSRITSAGAGQGQAAWFATFNETFGDYSEKAHELLNTKLEQWAEEAVARGGFHNTTALLIQYENYRDWIVNHNVAYSELFLDTAGVASFDVWDLLPFTRGYVHILDKDPYLHHFAYDPQYFLNELDLLGQAAATQLARNISNSGAMQTYFAGETIPGDNLAYDADLSAWTEYIPYHFRPNYHGVGTCSMMPKEMGGVVDNAARVYGVQGLRVIDGSIPPTQMSSHVMTVFYAMALKISDAILEDYASMQ",inhibited tumor growth to a much lesser extent,neither GOx nor SPION alone is able to produce ROS,–,–,–
"SPION-GOx-Cy7: GOx-SPION tagged with a fluorescent dye (Cy7 moiety) (conjugate, UniProt P13006 17-605, looked up, SPION conjugate, Cy7 dye) Glucose oxidase: LPHYIRSNGIEASLLTDPKDVSGRTVDYIIAGGGLTGLTTAARLTENPNISVLVIESGSYESDRGPIIEDLNAYGDIFGSSVDHAYETVELATNNQTALIRSGNGLGGSTLVNGGTWTRPHKAQVDSWETVFGNEGWNWDNVAAYSLQAERARAPNAKQIAAGHYFNASCHGVNGTVHAGPRDTGDDYSPIVKALMSAVEDRGVPTKKDFGCGDPHGVSMFPNTLHEDQVRSDAAREWLLPNYQRPNLQVLTGQYVGKVLLSQNGTTPRAVGVEFGTHKGNTHNVYAKHEVLLAAGSAVSPTILEYSGIGMKSILEPLGIDTVVDLPVGLNLQDQTTATVRSRITSAGAGQGQAAWFATFNETFGDYSEKAHELLNTKLEQWAEEAVARGGFHNTTALLIQYENYRDWIVNHNVAYSELFLDTAGVASFDVWDLLPFTRGYVHILDKDPYLHHFAYDPQYFLNELDLLGQAAATQLARNISNSGAMQTYFAGETIPGDNLAYDADLSAWTEYIPYHFRPNYHGVGTCSMMPKEMGGVVDNAARVYGVQGLRVIDGSIPPTQMSSHVMTVFYAMALKISDAILEDYASMQ",–,–,initial uptake of the bioconjugates was to tumor cells,–,–
"GOx-SPION: glucose oxidase conjugated to superparamagnetic iron oxide nanoparticle via Tz/TCO bioorthogonal ligation (conjugate, UniProt P13006 17-605, looked up, superparamagnetic iron oxide nanoparticle) Glucose oxidase: LPHYIRSNGIEASLLTDPKDVSGRTVDYIIAGGGLTGLTTAARLTENPNISVLVIESGSYESDRGPIIEDLNAYGDIFGSSVDHAYETVELATNNQTALIRSGNGLGGSTLVNGGTWTRPHKAQVDSWETVFGNEGWNWDNVAAYSLQAERARAPNAKQIAAGHYFNASCHGVNGTVHAGPRDTGDDYSPIVKALMSAVEDRGVPTKKDFGCGDPHGVSMFPNTLHEDQVRSDAAREWLLPNYQRPNLQVLTGQYVGKVLLSQNGTTPRAVGVEFGTHKGNTHNVYAKHEVLLAAGSAVSPTILEYSGIGMKSILEPLGIDTVVDLPVGLNLQDQTTATVRSRITSAGAGQGQAAWFATFNETFGDYSEKAHELLNTKLEQWAEEAVARGGFHNTTALLIQYENYRDWIVNHNVAYSELFLDTAGVASFDVWDLLPFTRGYVHILDKDPYLHHFAYDPQYFLNELDLLGQAAATQLARNISNSGAMQTYFAGETIPGDNLAYDADLSAWTEYIPYHFRPNYHGVGTCSMMPKEMGGVVDNAARVYGVQGLRVIDGSIPPTQMSSHVMTVFYAMALKISDAILEDYASMQ",significant slowdown of tumor growth,synergistic activity between conjugated GOx and SPION,–,no severe side effects,did not experience any significant body weight loss

# Source: patent publication US11931423B2, “Glucose oxidase-nanoparticle bioconjugates for cancer treatment” (UNIVERSITY OF PITTSBURGH—OF THE COMMONWEALTH SYSTEM OF …, priority 2017, dated 2024)
